Laboratory results as given in article doi:10.64898/2025.12.03.691989 (bioRxiv, 2025).

Tests used:
human UBA1 = biological target: T1, human UBA1 (human, UniProt P22314 1-1058); assay: MST
T1 sequence (looked up): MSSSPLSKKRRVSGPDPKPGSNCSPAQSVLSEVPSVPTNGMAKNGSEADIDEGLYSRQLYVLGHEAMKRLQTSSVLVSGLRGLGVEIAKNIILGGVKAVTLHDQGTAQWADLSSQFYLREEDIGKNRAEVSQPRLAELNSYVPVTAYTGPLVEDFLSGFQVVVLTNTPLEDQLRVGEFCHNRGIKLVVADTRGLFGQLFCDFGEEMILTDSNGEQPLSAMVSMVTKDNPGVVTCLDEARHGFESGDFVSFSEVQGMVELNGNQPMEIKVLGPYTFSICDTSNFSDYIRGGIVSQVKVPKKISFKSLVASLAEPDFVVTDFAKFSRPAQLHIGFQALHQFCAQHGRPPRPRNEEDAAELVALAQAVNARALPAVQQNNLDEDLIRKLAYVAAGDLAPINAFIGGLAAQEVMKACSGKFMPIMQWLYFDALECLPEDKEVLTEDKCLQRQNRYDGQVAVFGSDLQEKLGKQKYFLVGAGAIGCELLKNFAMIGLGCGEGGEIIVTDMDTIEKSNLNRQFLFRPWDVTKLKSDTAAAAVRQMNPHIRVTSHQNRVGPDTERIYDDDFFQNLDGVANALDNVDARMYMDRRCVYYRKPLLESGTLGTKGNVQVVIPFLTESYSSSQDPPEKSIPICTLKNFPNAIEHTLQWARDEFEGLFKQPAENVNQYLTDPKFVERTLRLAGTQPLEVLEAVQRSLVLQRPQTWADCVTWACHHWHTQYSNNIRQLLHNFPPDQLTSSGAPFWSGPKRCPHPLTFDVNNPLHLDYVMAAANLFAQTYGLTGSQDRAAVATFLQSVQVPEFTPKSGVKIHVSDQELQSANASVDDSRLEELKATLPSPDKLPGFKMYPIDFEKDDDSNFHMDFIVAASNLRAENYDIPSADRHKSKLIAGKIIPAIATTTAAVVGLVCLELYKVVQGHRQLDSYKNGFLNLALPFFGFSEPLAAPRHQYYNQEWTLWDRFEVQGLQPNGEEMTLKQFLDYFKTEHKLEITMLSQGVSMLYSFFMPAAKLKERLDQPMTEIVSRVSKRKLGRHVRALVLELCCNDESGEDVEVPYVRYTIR

[1] = biological target: T2, human UBA6 (full-length, amino acid residues 1-1052) (human, UniProt A0AVT1 1-1052); assay: MST
T2 sequence (looked up): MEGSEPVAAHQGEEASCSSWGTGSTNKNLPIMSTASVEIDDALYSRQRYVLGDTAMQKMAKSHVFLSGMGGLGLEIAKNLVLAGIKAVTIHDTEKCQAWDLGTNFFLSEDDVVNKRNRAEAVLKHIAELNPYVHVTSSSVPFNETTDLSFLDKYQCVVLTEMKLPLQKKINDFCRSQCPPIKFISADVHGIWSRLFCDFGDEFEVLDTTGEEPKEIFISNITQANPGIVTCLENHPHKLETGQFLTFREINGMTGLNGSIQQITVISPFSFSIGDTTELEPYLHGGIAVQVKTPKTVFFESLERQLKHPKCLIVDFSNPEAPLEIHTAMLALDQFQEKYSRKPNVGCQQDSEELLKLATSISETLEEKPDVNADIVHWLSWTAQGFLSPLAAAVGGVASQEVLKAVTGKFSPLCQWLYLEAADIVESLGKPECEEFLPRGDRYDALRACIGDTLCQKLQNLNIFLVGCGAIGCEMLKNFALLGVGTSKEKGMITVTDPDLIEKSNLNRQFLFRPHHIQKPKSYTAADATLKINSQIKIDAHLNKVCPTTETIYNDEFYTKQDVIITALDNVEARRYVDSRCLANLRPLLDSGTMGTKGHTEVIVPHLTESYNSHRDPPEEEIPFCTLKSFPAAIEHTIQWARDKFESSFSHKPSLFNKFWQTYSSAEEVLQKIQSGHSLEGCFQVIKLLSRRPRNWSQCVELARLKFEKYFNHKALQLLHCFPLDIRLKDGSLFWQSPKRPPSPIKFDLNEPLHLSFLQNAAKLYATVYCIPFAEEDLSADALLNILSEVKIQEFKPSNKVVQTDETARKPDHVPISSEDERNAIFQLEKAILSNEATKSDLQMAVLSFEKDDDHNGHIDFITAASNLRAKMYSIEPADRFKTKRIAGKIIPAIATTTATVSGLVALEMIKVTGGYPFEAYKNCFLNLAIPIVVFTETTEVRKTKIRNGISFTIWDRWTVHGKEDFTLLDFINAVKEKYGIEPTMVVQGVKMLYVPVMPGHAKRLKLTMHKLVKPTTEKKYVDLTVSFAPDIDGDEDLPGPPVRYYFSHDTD

- Kd (human UBA1): 13 µM
- Kd [1]: 23 µM
B1: BIRC6 UBC domain (amino acid residues 4520-4857) (domain or fragment)
chain: not shown
